Consider 1 molecule from patent US20230280343A1 (NEW YORK UNIVERSITY, published 2023).

For this assay, the target named is T1, SARS-CoV-2 spike receptor binding domain (RBD) (SARS-CoV-2, UniProt P0DTC2 319-541).
T1 construct: domain: RBD

B1: coiled-coil domain of the cartilage oligomeric matrix protein (C) (other)
chain: GDLAPQMLRELQETNAALQDVRELLRQQVKEITFLKNTVMECDACGKLN
notes: also called parent protein C; ccCOMP
For the molecule B1, the binding result is recorded as “no binding”.
